According to patent US20100008978A1, “NANOPARTICLES EFFECTIVE FOR INTERNALIZATION INTO CELLS” (THE REGENTS OF THE UNIVERSITY OF CALIFORNIA, priority 2008, published 2010):
Positions count from the first letter of the chain named. “Also recorded” adds a separate entry of the source.

What was measured:
[1] = target: T1, epidermal growth factor receptor (EGFR) on tumor cells (human, UniProt P00533 25-1210); assay: apparent KD, flow cytometry, fluorescent immunoliposomes on MDAMB468 cells, 4 C; 74 scFv/liposome
T1 construct: whole, on cells; Intact EGFR on A431 and MDAMB468 cells (1x10^6-3x10^6 EGFR/cell); also called EGFR-expressing A431 cells; MDAMB468 cells

[2] = target: T1, epidermal growth factor receptor (EGFR) …; assay: apparent KD, flow cytometry, fluorescent immunoliposomes on MDAMB468 cells, 4 C; 148 scFv/liposome
[3] = target: T2, A431 cells expressing EGFR (Homo sapiens, UniProt P00533); assay: scFv affinity for cells expressing EGFR (A431) by flow cytometry; assay type: binding
T2 construct: Human squamous carcinoma A431 cells expressing EGFR; endogenous in cells; host or cells: A431
Protocol: Human squamous carcinoma A431 cells expressing EGFR were grown to 80-90% confluence in RPMI medium supplemented with 10% fetal bovine serum and harvested by trypsinization. […] Cell binding was performed at 4° C. in FACS buffer in a volume calculated to ensure fivefold scFv excess and for a duration calculated to ensure that the reaction had reached equilibrium. After two washes with 200 μL of FACS buffer, cell-bound scFv was detected by the addition of 100 μl of 1 μg/ml biotinylated His probe (Santa Cruz Biotech.) and a 1:800 (v/v) dilution of streptavidin-PE (Biosource). After incubation at 4° C. for 30 min, the cells were washed twice and resuspended in PBS containing 4% (v/v) paraformaldehyde. Fluorescence was measured by flow cytometry in a FACS LSRII instrument (Becton Dickinson), and the median fluorescence intensity (MFI) values were fit to the equation:
MFI=MFImin+MFImax([Ab]/(KD+[Ab])
using the software program Kaleidagraph as described previously (Benedict et al. (1997) J. Immunol. Methods, 201: 223-231).

MDAMB453 cells = assay: differential binding of scFv to cell lines by flow cytometry; details: 10^4 EGFR/cell
biotinylated EGFR-ECD = target: T3, biotinylated EGFR-ECD (Homo sapiens, UniProt P00533); assay: KD of yeast-displayed scFv for biotinylated EGFR-ECD by flow cytometry; assay type: binding; details: concentrations as high as 8 μM
T3 construct: Recombinant EGFR-ECD was expressed in HEK293 cells; made in house; host or cells: HEK293
Protocol: Generally, six to eight different concentrations of biotinylated EGFR were used to span a range of concentrations from ten times above to ten times below the KD. Incubation volumes, times and yeast numbers were chosen to ensure that the studies were done in at least fivefold antigen excess and that equilibrium had been achieved (Razai et al. (2005) J. Mol. Biol. 351: 158-169). For anti-EGFR scFv, […] in 50 μl were incubated with biotinylated EGFR-ECD for 1 h at room temperature. […] Only yeast displaying scFv (as determined by binding of SV5 mAb) were gated for affinity measurements.

MDAMB468 cells = assay: differential binding of scFv to cell lines by flow cytometry; parameters: species or system human; details: 1×10^6−3×10^6 EGFR/cell
[4] = target: T4, EGFR (vIII) stably transfected NR6M cells (Homo sapiens, UniProt P00533, DELINS30-297G); assay: as above
T4 construct: expressed in transfected cells; host or cells: NR6M (NR6 stably transfected with EGFRvIII)

A431 cells = target: T5, A431 cells (Homo sapiens, UniProt P00533); assay: as above; details: 1×10^6−3×10^6 EGFR/cell
T5 construct: endogenous in cells; host or cells: A431

NR6 cells = assay: as above; details: parental, EGFR negative

B1: EGFR-targeted immunoliposome constructed from C10 scFv (other)
VH: EVQLVQSGAEVKKPGSSVKVSCKASGGTFSSYAISWVRQAPGQGLEWMGGIIPIFGTANYAQKFQGRVTITADESTSTAYMELSSLRSEDTAVYYCAREEGPYCSSTSCYGAFDIWGQGTLVTVSS
VL: QSVLTQDPAVSVALGQTVKITCQGDSLRSYFASWYQQKPGQAPTLVMYARNDRPAGVPDRFSGSKSGTSASLAISGLQSEDEADYYCAAWDDSLNGYLFGAGTKLTVL
modifications: free cysteine residue at the COOH terminus conjugated to Mal-PEG-DSPE and inserted into the liposome ; The scFv carries a free cysteine at the COOH terminus conjugated to Mal-PEG-DSPE and inserted into a 100-120 nm liposome. It is multivalent, at 12-148 scFv per liposome. None of this can be carried by the letters.
notes: also called C10 ILs; C10 IL; not shown: scFv linker, the C-terminal extension with the free cysteine and tags, and the Mal-PEG-DSPE liposome carrier
Molecule B1 has a Kd [1] of 1.75 nM and a Kd [2] of 0.36 nM.

B2: 2224: P2/2 scFv combined with the VH CDR3 Gly to Ala mutation from P2/4; SEQ ID NO:17 and 24 (protein)
scFv: B1 VL with F31L, M47T
modifications: Synthetic antibody
B2 was tested, and the “improvement in affinity compared to C10 scFv” value [3] was 280 fold.

B3: C10: parental (wild-type) internalizing human anti-EGFR scFv from a non-immune phage library; SEQ ID NO:1 (protein)
scFv: B1 VH
modifications: Synthetic antibody
With B3 the “binding to MDAMB453 cells” value (MDAMB453 cells) was “did not stain”, the “binding of yeast-displayed scFv to biotinylated recombinant EGFR” value (biotinylated EGFR-ECD) was “only minimal binding” and the “binding to MDAMB468 cells” value (MDAMB468 cells) was “stained”. The “binding to NR6M cells” value [4] was “strong staining; also recorded: stained”, the “binding to A431 cells” value (A431 cells) was “stained” and the “binding to NR6 cells” value (NR6 cells) was “minimal binding; also recorded: did not stain”.
